The DeepSol protein solubility set

experiment: soluble on expression in E. coli; label from the status in PepcDB or PDB records

Row | Sequence | soluble on expression in E. coli
1 | DYIVEKLNMTKMYDIFSQYLPPQVFINDDSVVHLVRNSIYYKKMRGKHDLVILAGDFQGTTQEAQYELSYQVLQIAKEIGVSMIYTLGGYSIGKIVDKPRVLGAVTDKNLVADLEKNGVVFPKGE | not soluble
2 | DYSQKLQNLISEQLVGCGFNEILNNSLTAASYYEGSETYKNENLVYLMNPLSNDLNVMRQTLLFGGLESIQHNANRKNADLKFFEFGNCYFYNAEKKNPEKVLAAYAEEYHLGLWVTGKRVSNSWAHPDENSSVYELKAYVLNIFTRLGLNFGNVVFGNLTNDIYSTAISVHTRGGKLLATFGIISKKIQKAFDIDNEVYYAEINWKELM | not soluble
3 | EDATPETVEYRQLSAADLLADTHLLREVFGLLVLAHYRTEPSDLARLLDAPNLTVRALTHEGHVVAVALLAQEGGLSASTRATMYEGGRVRGNMLPDVLSTQLRDEAAGVPVGQRVLRIATHAAVRSRGLGSKLLSEIRAEFADHVDWVGVSYGATPELVRFWADNGYNTVHLATSRNATSGEYSVVMLDP | not soluble
4 | EDMKGKIRVYCRLRPLCEKEIIAKERNAIRSVDEFTVEHLWKDDKAKQHMYDRVFDGNATQDDVFEDTKYLVQSAVDGYNVCIFAYGQTGSGKTFTIYGADSNPGLTPRAMSELFRIMKKDSNKFSFSLKAYMVELYQDTLVDLLLPKQAKRLKLDIKKDSKGMVSVENVTVVSISTYEELKTIIQRGSEQRHTTGTLMNEQSSRSHLIVSVIIESTNLQTQAIARGKLSFVDLAGSERVKKSGSAGNQLKEAQSINKSLSALGDVISALSSGNQHIPYRNHKLTMLMSDSLGGNAKTLMFVNISPAESNLDETHNSLTYASRVRSIVNDPSKNVSSKEVARLKKLVSYWKEQAGRKGDDEELEEIQDE | soluble
5 | EDRVGERRIMIDKKEAIEHFRRHPGDGMIKLDLLTTAYNDINLIPPIYQPFLQDKQYFLGEVGQEPNTRMIYMSTFNQNGEEHPIILISLIDEIEITSTE | not soluble
6 | EGLDYLTAPNPPSIREELCTASHDTITVHWISDDEFSISSYELQYTIFTGQANFISLYNSVDSWMIVPNIKQNHYTVHGLQSGTRYIFIVKAINQAGSRNSEPTRLKTNSQPFK | soluble
7 | EKMTRDEIEYMLTNSEETLDADEIEMLQGVFSLDELMAREVMVPRTDAFMVDINDDSSDIIQTILNERFSRIPVYDDDKDKIIGIIHTKNLLNAGFKEGFDHINLRRILQEPLFVPETIVVNDLLTALKNTQNQMAILLDEYGGVAGLVTLEDLLEEIVGEIDDETDKTAISVREIADNTYIVLGTM | not soluble
8 | ELDWFARRGLKEPNLAELLDLVALGSVADVVPLDANNRILVHQGLARIRAGRARPGLRALLEVAGRPPVRITSTDLGFILGPRLNAAGRLDDMSLGIECLLCDDEALARDMAVQLDQLNQDRKAIEQGMQREALAQLKELSLEQLPFGLCLFDADWHQGVIGILASRLKERYHRPTIAFADAGDGSLKGSARSIPGFHIRDALDAVAARHPGLISKFGGHAMAAGLSLPQENFGAFSAAFDAEVRRQLAEEDLAGRLLSDGQLSIQEFHLELARALRQAGPWGQHFPEPMFHGVFQLVQQRIVGERHLKLVLKSECGSLQLDGIAFNIDREQWPNPTVRWAELAYKLDVNEFRGQESVQL | not soluble
9 | ELVMTQTPLSLPVSLGDQASISCRSSQSLVHSNGNTYLHWYLQKPGQSPKFLIYKVSNRFSGVPDRFSGSGSGTDFILKISRVEAEDLGVYFCFQSTHFFPTFGGGTKLEIKRTVAAPSVFIFPPSDEQLKSGTASVVCLLNNFYPREAKVQWKVDNALQSGNSQESVTEQDSKDSTYSLSSTLTLSKADYEKHKVYACEVTHQGLSSPVTKSFNRGEC | soluble
10 | ENVLTQSPAIMSPSPGEKVTMTCRARSSVSSSYLHWYQQKSGASPKLWIYSTSNLASGVPARFSGSGSGTSYSLTISSVEAEDTATYYCQQYSGNPWTFGGGTKLEIKRADAAPTVSIFPPSSEQLTSGGASVVCFLNNFYPKDINVKWKIDGSERQNGVLNSWTDQDSKDSTYSMSSTLTLTKDEYERHNSYTCEATHKTSTSPIVKSFNRNEC | soluble
11 | ESRLDRILESGVLRVATTGDYKPFSYRTEEGGYAGFDVDMAQRLAESLGAKLVVVPTSWPNLMRDFADDRFDIAMSGISINLERQRQAYFSIPYLRDGKTPITLCSEEARFQTLEQIDQPGVTAIVNPGGTNEKFARANLKKARILVHPDNVTIFQQIVDGKADLMMTDAIEARLQSRLHPELCAVHPQQPFDFAEKAYLLPRDEAFKRYVDQWLHIAEQSGLLRQ | not soluble
12 | EVKQFNTYANNLAKIKQKVILMGLLTEAKLEQYKGLSVDEVEAQTEFSFQDAIYSLSPYEKLNYVEAVARKSLHQAEAYLSNAFNRQNAIMYFRSYTGSKLILERPIKALEGVKATFDVDWCKSNYSCVLAAWKEQLTDRVLFSLPFKTTYSDDMAISIMSPVYFQGELVGEFSEQLYLSSLYNEGKAVDVQISNGNKQMVIYFSGYPWPSFAYTQSFVADNNNLIVYMYPFSKV | not soluble
13 | EVQLQQSGPELKKPGETVKISCKATNYAFTDYSMHWVKQAPGGDLKYVGWINTETDEPTFADDFKGRFAFSLDTSTSTAFLQINNLKNEDTATYFCVRDRHDYGEIFTYWGQGTTVTVSA | soluble
14 | FASVLQGVFEYPYGCAEQTASKGYAALWLDDATIRSLGIQGVTPAQRLERLEGALGRLASLQTTNGHFSMWGGNSDVNPVLTPYIAGFLLDAKDAGFAVSDAVLQKALNRLSEDLLSGAHLFYGNDQSEALMFAHQAWSGYVLARVNRAPLGTLRTLYDNERGKAVSGLSLVHLGVALSLQGDRKRGEAAIEAGFAKSEGGRPEVFGDYGSVIRDNALMIALVRAHGLAKPAYEARVMALGRDLQARRRSGWLWLSTQEQVALAQ | not soluble
15 | FEKHGTYYEIFVRSFYDSDGDGIGDLKGIIEKLDYLNDGDPETIADLGVNGIWLMPIFKSPSYHGYDVTDYYKINPDYGTLEDFHKLVEAAHQRGIKVIIDLPINHTSERHPWFLKASRDKNSEYRDYYVWAGPDTDTKETKLDGGRVWHYSPTGMYYGYFWSGMPDLNYNNPEVQEKVIGIAKYWLKQGVDGFRLDGAMHIFPPAQYDKNFTWWEKFRQEIEEVKPVYLVGEVWDISETVAPYFKYGFDSTFNFKLAEAVIATAKAGFPFGFNKKAKHIYGVYDREVGFGNYIDAPFLTNHDQNRILDQLGQDRNKARVAASIYLTLPGNPFIYYGEEIGMRGQGPHEVIREPFQWYNGSGEGETYWEPAMYNDGFTSVEQEEKNLDSLLNHYRRLIHFRNENPVFYTGKIEIINGGLNVVAFRRYNDKRDLYVYHNLVNRPVKIKVASGNWTLLFNSGDKEITPVEDNNKLMYTIPAYTTIVLEKE | soluble
16 | FFTPPHIVQLCVRLVDDFADGMTFHDPTVGSGGMLTEAAKYYREAQGGDPSKLTFTGQEINPDIAAIARMNLSLHTLNGEIERGDSLASPGFTDGDDLERFDRVLANFPFSADWAKDDLQDDQYGRFDWHTKLPRADRGDYAFIMHIAEQLKEPDCGDESGGKAAIVIPHGVLFRKHEQRYRQPMLENDLVEAIVGLPENLFQNNSIPSAILVLNTDKPADREGEVQFIHAADEAFYEELSNQNELTDDGLDHIVENFDDWTTE | not soluble
17 | FGIIRGLMMHVTLVEINVHDDKVEQFIDVFRQNHLGSIKEPGNLRFDVLQDPQVLTRFYIYEAYVDEQAVAFHKTTPHYKTCVEQLEPLMTGPRTKKVFMGL | not soluble
18 | FIKLPEFKLNYHNKSYRQYGRGFALQNTNFRPGSSGTLMLNNQKQIAGIYFGVLDFGEDVSLMSNIGVGQILRVPQKNNTRNR | not soluble
19 | FLPTSREEMDQLGWDSCDVIIVTGDAYVDHPSFGMAIIGRLLEAQGFRVGIIAQPEWQTKDAFMTLGKPNLFFGVTAGNMDSMINRYTADKKIRHDDAYTPNNKGGMRPDRCSLVYSQRCREAYKDVPIVLGGIEASLRRVAHYDYWSDKVRRSILLDAKADILLFGNAERALVEVAHRLANGESINKMVDIRGTAVNLAQVPEHFKIIDSTRIDQPNKPFVPSNPYEVETQCATKGDEKEEAQPITIRPSRHDAKTTAVRLPSFEKLVNDRILYAHASRVLHLETNPYSGRALVQRHGDRELWVNQAPIPLTTEEMDFVFGLYYARVPHPKYGDAKIPAYDMIKTSVNIMRGCF | not soluble
20 | FNDEGEMHLPGQYDMLKARLAKNPGAELLIFIHGWHHNAAPTDDNFVAFQRFHRQMAKTNPGLIGLYIGWRGDQYDPLWLDGSDDPESRVEALDFPTILTSKQVARRVGEHGVRKLLSSLDELHRQGTLGRYILVGHSLGGVVALHA | not soluble
21 | FPSTYLSHRQETIGQKATAIAQSLEGKDRQSIEQVLDLYSQTSDIKGTVKGEMTEDKLEVKDSLPLDTDRQTTSLFIEEREVKTQDGGTMILQFLASMDLQKEAEQ | not soluble
22 | FSAPIKAERTAFRRAVCANQYDAVIDAQGLVKSAALVTRLAHGIKHGMDWSTAREPLASLFYNRKHHIAKQQHAVERTRELFAKSLGYDKPQSQGDYAIAKHFLHCQQAVSDPYAVFLHATTRDDKHWPEANWRELIGLVGNTGLRIKLPWGAPHEEARAKRLAEGFDYVDVLPRMSLEEVARVLAGAKFVVSVDTGLSHLTAALDRPNITLYGPTDPGLIGGYGKNQ | not soluble
23 | FVAHSSGQEVKLDKAPIDRADKESLQRGAKGFVEYCLTCHGANFMRFNRHHDIGMSEDDIRADLIHTGQKTGDLMEAAMRKKEAEGWFGVVPPDLSVIARARGADWLYTYLRTFYQDTSTYSGWNNLIFDKVAMPHVLHHLQGWQVLEPGTGNLVQTKPGTMTKEEYDRFVADLVNYMVYLGEP | not soluble
24 | FVDPLCPECWSLEPVIKKLKIRYGRFFTLRIIASASLTALNKKRKKHLLAEAWEKIASRSGMSCDGNVWFEQDQPLSSPYMAALAFKAAELQGRKAGMQFLRNMQESLFVSKKNITDENVLLEIAENTSLDLEEFKKDLHSQSAVKALQCDMKIAAEMDVSVNPTLTFFNTQHEDEGLKVPGSYSYDVYEEILFEMLGDE | not soluble
25 | GAADMPFRWSFMADGKSLIAAQPDDARVIADTEALAGWYGGMTSLAPKQIKLFADGAIYSQLMQVRDPFLDGHKGEWMMDLDQFQRAFRVYWDAGYQLHVHVNGDAGLDRVLDTLETNLRRTPRDDHRTTIVHFAVSGADQVLRIRDLGAIVSANPYYVAALADNYGEVGLGPDRADNMVRLGDVEAAGISWSLHSDMPMAPCDPLFLMWCAVNRVTSSGRVAGPAQRVSAETALRGVTINAAYSLKLEHEIGSIEPGKRANLTILGDNPLTVDPEKIRDIAVIGTVMEGRDFP | not soluble
26 | GAHTVDKRFGMDFKEIELIGSGGFGQVFKAKHRIDGKTYVIKRVKYNNEKAEREVKALAKLDHVNIVHYNGCWDGFDYDPETSSKNSSRSKTKCLFIQMEFCDKGTLEQWIEKRRGEKLDKVLALELFEQITKGVDYIHSKKLINRDLKPSNIFLVDTKQVKIGDFGLVTSLKNDGKRTRSKGTLRYMSPEQISSQDYGKEVDLYALGLILAELLHVCDTAFETSKFFTDLRDGIISDIFDKKEKTLLQKLLSKKPEDRPNTSEILRTLTVWKKSPEKNERHTA | soluble
27 | GAKSEMAFAGKGEISPRAITMWDFSWLERRWPGAGYEDWDQVLDELSERGYNAIRIDAYPHLIAENPMKKWLLKEVWNQQDWGSPDMNEVQVQPNLNLFLSKCKERDIKVGLSSWYRLDVDEVCLKLDTPEKLADCWLTILRSIEEDGLLDTILYVDLCNEWPGDSWAPFFAKTYPNVGWGNWYKEESLRWMKTSLEKMRQVYPDMPFLYSFDHGDVKKYEEVDCSFLDLYEHHIWMAQQNGGEFYKLVGYGYNRFLPDDYKNVVKNAERVYRERPGYWQKLLTDKIELMASVARKNRRPLVTTECWGLVDYKDWPLLKWDWVKDLCELGTITAARTGMWVGVATSNFCGPQFAGMWRDVEWHKRLTSIIRSSPLDESLTKNNEVAAKLLKRL | soluble
